According to patent publication US7888089B2, “eNOS mutations useful for gene therapy and therapeutic screening” (Yale University, priority 1999, dated 2011):
Numbering of substitutions follows the chain as printed. Names and notes keep the numbering of the source.

Columns and labels:
Akt [1] = molecular target: T1, Akt (Homo sapiens, UniProt P31749); experiment: In vitro phosphorylation of eNOS peptides (1174-1194) by recombinant Akt; format: biochemical; details: n=5
T1 construct: host or cells: baculovirus-infected SF9 cells (Akt); peptides synthesized at the W. M. Keck Biotechnology Resource Center
Protocol: In studies identifying the labeled eNOS peptide, immunoprecipitated Akt was incubated with recombinant eNOS as above. The sample was run on SDS-PAGE, and the eNOS band digested in gel, and the resultant tryptic fragments purified by RP-HPLC. Peptide mass and ^32P incorporation were monitored and the prominent labeled peak further analyzed by mass spectrometry. In other experiments, peptides corresponding to the potential Akt phosphorylation site were synthesized, purified by HPLC and verified by mass spectrometry (W. M. Keck Biotechnology Resource Center, Yale University School of Medicine). The wild-type peptide was 1174[…]1194 (SEQ ID NO:2) and the mutant peptide was identical except S1179 was changed to an alanine. In vitro kinase reactions were essentially as described above incubating peptides (25 mg) with recombinant Akt (1 mg). Reactions were then spotted onto phosphocellulose filters and the amount of phosphate incorporated measured by Cerenkov counting.

COS-7 cells = experiment: NO release (NO2−, chemiluminescence) from transfected COS cells; format: cell-based; details: for Akt dependent NO release / activation of NOS construct: NOS construct co-transfected with Akt; for NO2− accumulation on co-transfection with eNOS: Akt construct co-transfected with eNOS, FIG. 1A
Text: Cell Transfections: The bovine eNOS, human iNOS, rat nNOS cDNAs in pcDNA3 and HA-tagged wild-type Akt, Akt (K179M) or myr-Akt in pCMV6 were generated by standard cloning methods. The myr-nNOS in pcDNA3 was generated by PCR, incorporating a new amino terminus containing the eNOS N-myristoylation consensus site (MGNLKSVG, SEQ ID NO:1) fused in frame to the second amino acid of the nNOS coding sequence. […] Mutation of the putative Akt phosphorylation sites in eNOS were generated using the Quick Change site-directed mutagenesis kit (Stratagene) according to the manufacturers instructions. All mutants were verified by DNA sequencing. COS-7 cells were plated (100 mm dish) and transfected with the NOS (7.5-30 mg) and Akt (1 mg) plasmids using calcium phosphate. To balance all transfections, the expression vector for β-galactosidase cDNA was used. Twenty-four to forty-eight hours after transfection, the expression of appropriate proteins (40-80 mg) were confirmed by Western blot analysis using eNOS mAb (9D10, Zymed), HA mAb (12CA5, Boehringer Mannheim), iNOS pAb (Zymed Laboratories) or nNOS mAb (Zymed Laboratories).
NO release from transfected COS cells: 24-48 hrs after transfection, media was processed for the measurement of nitrite (NO2^−), the stable breakdown product of NO in aqueous solution, by NO specific chemiluminescence as described (Sessa et al., 1995). Media was deproteinized and samples containing NO2^− were refluxed in glacial acetic acid containing sodium iodide. […] In all experiments, NO2^− release was inhibitable by a NOS inhibitor. In addition, NO2^−-release from cells transfected with the β-galactosidase cDNA was subtracted to control for background levels of NO2^− found in serum or media. In some experiments, cGMP accumulation in COS was used as a bioassay for the production of NO as described.

Akt [2] = experiment: In vitro kinase reaction with Akt immunoprecipitated from COS cells; format: biochemical; details: immunoprecipitated kinase
eNOS = experiment: NOS activity (3H-L-arginine to 3H-L-citrulline) in COS cell lysates; format: biochemical, bovine; details: COS cells transfected with eNOS only, n=3
Text: NOS activity assays: The conversion of ^3H-L-arginine to ^3H-L-citrulline was used to determine NOS activity in COS cell or endothelial cell lysates as previously described by Garcia-Cardena et al. (1998).

Akt [3] = experiment: 32P phosphorylation of eNOS in intact transfected COS cells; format: cell-based; details: eNOS/Akt transfected COS cells; wortmannin 500 nM
Protocol: Phosphorylation studies in vivo and in vitro: For in vivo phosphorylation studies, COS cells were transfected with the cDNAs for wild-type or S635, 1179A eNOS and HA-Akt overnight. 36 hrs after transfection, cells were placed into dialyzed serum replete, phosphate-free Dulbecco's minimum essential medium supplemented with 80 μCi/ml of ^32P orthophosphoric acid for 3 hr. Some cells were pretreated with wortmannin (500 nM) in the phosphate-free media for 1 hr and during the labeling.

Akt [4] = molecular target: T1, Akt; experiment: In vitro phosphorylation of purified eNOS by recombinant Akt; format: biochemical; details: FIG. 2D
Protocol: In experiments examining the in vitro phosphorylation of wild-type and mutant eNOS, recombinant Akt (1 mg) purified from baculovirus infected SF9 cells, was incubated with wild-type or S1179A eNOS (2.4 mg, purified from E. coli) using essentially the same conditions as above. Proteins were resolved by SDS-PAGE and ^32P incorporation and the amount of protein determined by Coomassie staining as above.

T1 sequence (P31749 whole entry): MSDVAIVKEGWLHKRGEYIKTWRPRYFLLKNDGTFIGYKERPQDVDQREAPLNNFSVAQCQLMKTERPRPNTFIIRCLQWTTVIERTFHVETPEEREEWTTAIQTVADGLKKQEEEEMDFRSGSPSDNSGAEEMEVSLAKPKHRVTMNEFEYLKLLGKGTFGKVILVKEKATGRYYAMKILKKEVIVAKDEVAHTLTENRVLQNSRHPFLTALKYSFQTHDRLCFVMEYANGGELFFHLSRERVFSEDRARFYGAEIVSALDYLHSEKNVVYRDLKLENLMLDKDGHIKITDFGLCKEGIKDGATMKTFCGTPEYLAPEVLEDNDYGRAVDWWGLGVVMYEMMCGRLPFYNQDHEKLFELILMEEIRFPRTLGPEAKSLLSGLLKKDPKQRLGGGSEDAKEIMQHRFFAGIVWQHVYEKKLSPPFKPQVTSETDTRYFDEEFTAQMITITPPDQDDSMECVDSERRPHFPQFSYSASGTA

Molecule: 1174RIRTQSFSLQERHLRGAVPWA1194 (listed as Bos sp.) [wild-type peptide]
- phosphate incorporated into peptide (Akt [1]): 24.6±3.7 nmol phosphate/mg

Molecule: iNOS: human inducible NOS [reference compound]
- Akt dependent NO release / activation of NOS construct (COS-7 cells): did not result in a further increase in NO release

Molecule: kinase inactive Akt: kinase inactive Akt (K179M) [reference compound]
- NO2− accumulation on co-transfection with eNOS (COS-7 cells): not
- histone or eNOS phosphorylation by Akt variant (Akt [2]): did not significantly increase histone or eNOS phosphorylation

Molecule: myr-nNOS: nNOS with new amino terminus containing the eNOS N-myristoylation consensus site (MGNLKSVG)
- Akt dependent NO release / activation of NOS construct (COS-7 cells): results in Akt stimulation of nNOS

Molecule: nNOS: rat neuronal NOS [reference compound]
- Akt dependent NO release / activation of NOS construct (COS-7 cells): did not result in a further increase in NO release

Molecule: wild-type Akt: HA-tagged wild-type Akt (protein kinase B) [reference compound]
- NO2− accumulation on co-transfection with eNOS (COS-7 cells): markedly enhanced

B1: G2A eNOS: myristoylation, palmitoylation defective mutant of eNOS (protein)
chain: ANLKSVGQEPGPPCGLGLGLGLGLCGKQGPASPAPEPSRAPAPATPHAPDHSPAPNSPTLTRPPEGPKFPRVKNWELGSITYDTLCAQSQQDGPCTPRCCLGSLVLPRKLQTRPSPGPPPAEQLLSQARDFINQYYSSIKRSGSQAHEERLQEVEAEVASTGTYHLRESELVFGAKQAWRNAPRCVGRIQWGKLQVFDARDCSSAQEMFTYICNHIKYATNRGNLRSAITVFPQRAPGRGDFRIWNSQLVRYAGYRQQDGSVRGDPANVEITELCIQHGWTPGNGRFDVLPLLLQAPDEAPELFVLPPELVLEVPLEHPTLEWFAALGLRWYALPAVSNMLLEIGGLEFSAAPFSGWYMSTEIGTRNLCDPHRYNILEDVAVCMDLDTRTTSSLWKDKAAVEINLAVLHSFQLAKVTIVDHHAATVSFMKHLDNEQKARGGCPADWAWIVPPISGSLTPVFHQEMVNYILSPAFRYQPDPWKGSATKGAGITRKKTFKEVANAVKISASLMGTLMAKRVKATILYASETGRAQSYAQQLGRLFRKAFDPRVLCMDEYDVVSLEHEALVLVVTSTFGNGDPPENGESFAAALMEMSGPYNSSPRPEQHKSYKIRFNSVSCSDPLVSSWRRKRKESSNTDSAGALGTLRFCVFGLGSRAYPHFCAFARAVDTRLEELGGERLLQLGQGDELCGQEEAFRGWAKAAFQASCETFCVGEEAKAAAQDIFSPKRSWKRQRYRLSTQAEGLQLLPGLIHVHRRKMFQATVLSVENLQSSKSTRATILVRLDTAGQEGLQYQPGDHIGICPPNRPGLVEALLSRVEDPPPPTESVAVEQLEKGSPGGPPPSWVRDPRLPPCTLRQALTFFLDITSPPSPRLLRLLSTLAEEPSEQQELETLSQDPRRYEEWKWFRCPTLLEVLEQFPSVALPAPLLLTQLPLLQPRYYSVSSAPNAHPGEVHLTVAVLAYRTQDGLGPLHYGVCSTWLSQLKTGDPVPCFIRGAPSFRLPPDPYVPCILVGPGTGIAPFRGFWQERLHDIESKGLQPAPMTLVFGCRCSQLDHLYRDEVQDAQERGVFGRVLTAFSREPDSPKTYVQDILRTELAAEVHRVLCLERGHMFVCGDVTMATSVLQTVQRILATEGDMELDEAGDVIGVLRDQQRYHEDIFGLTLRTQEVTSRIRTQSFSLQERHLRGAVPWAFDPPGPDTPGP
- Akt dependent NO release / activation of NOS construct (COS-7 cells): did not activate

B2: S635, 1179A: double serine mutant of eNOS, serines 635 and 1179 mutated to alanine (protein)
chain: B1 chain with A1G, S634A, S1178A
- Akt dependent NO release / activation of NOS construct (COS-7 cells): abolishes Akt dependent NO release
- NOS activity in lysates (eNOS): 80.8±23.2 pmol L-citrulline generated/mg protein
- Akt dependent phosphorylation of eNOS in intact cells (Akt [3]): abolished Akt dependent phosphorylation of eNOS

B3: S1179A: bovine eNOS with serine 1179 mutated to alanine (protein)
chain: B1 chain with A1G, S1178A
- Akt dependent NO release / activation of NOS construct (COS-7 cells): abolishes Akt dependent activation of eNOS
- NOS activity in lysates (eNOS): 71.9±2.9 pmol L-citrulline generated/mg protein
- Akt-dependent phosphorylation compared to the wild-type protein (Akt [4]): markedly reduces
